Data on five sequences can be found in the supplement of paper PMC5998384.

The subject of data set [1] is HeLa Kyoto. In words: solubility in G1/S (NP-40 vs SDS abundance) (log2 ratio); higher = more soluble. To be noted: cell cycle stage: G1/S.
In data set [2] the test system is HeLa Kyoto. In words: melting temperature (median over replicates), in situ; higher = more thermally stable.
The subject of data set [3] is HeLa Kyoto. In words: solubility change mitosis vs G1/S (difference of NP-40 vs SDS log2 ratios) (log2 ratio difference); higher = more soluble in mitosis.
In data set [4] the test system is HeLa Kyoto. Nature of the data set: thermal stability score vs G1/S (z-score of summed log2 fold changes over temperatures); higher = more thermally stable than in G1/S.
The mark [5] stands for this setting: cell cycle stage: early G1 (4.5 h after nocodazole release).
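For melting temperature (median over replicates), in situ in this document: HeLa Kyoto cells synchronized by double thymidine or nocodazole block, proteins quantified by TMT10plex mass spectrometry, three independent biological replicates.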
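For solubility change mitosis vs G1/S (difference of NP-40 vs SDS log2 ratios) in this document: synchronized HeLa Kyoto cells (double thymidine block for G1/S, nocodazole release for mitosis), protein amounts in NP-40 versus SDS lysates quantified by mass spectrometry, three biological replicates.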
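For solubility in G1/S (NP-40 vs SDS abundance) in this document: HeLa Kyoto cells arrested at G1/S by double thymidine block, proteins quantified by TMT10plex mass spectrometry in mild NP-40 versus SDS extracts, three biological replicates.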
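For thermal stability score vs G1/S (z-score of summed log2 fold changes over temperatures) in this document: synchronized HeLa Kyoto cells, proteins quantified by TMT10plex mass spectrometry, three biological replicates, mitosis taken 0.5 h after nocodazole release, G1/S directly after double thymidine block.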

For the sequence “MENLKHIITLGQVIHKRCEEMKYCKKQCRRLGHRVLGLIKPLEMLQDQGKRSVPSEKLTTAMNRFKAALEEANGEIEKFSNRSNICRFLTASQDKILFKDVNRKLSDVWKELSLLLQVEQRMPVSPISQGASWAQEDQQDADEDRRAFQMLRRDNEKIEASLRRLEINMKEIKETLRQYLPPKCMQEIPQEQIKEIKKEQLSGSPWILLRENEVSTLYKGEYHRAPVAIKVFKKLQAGSIAIVRQTFNKEIKTMKKFESPNILRIFGICIDETVTPPQFSIVMEYCELGTLRELLDREKDLTLGKRMVLVLGAARGLYRLHHSEAPELHGKIRSSNFLVTQGYQVKLAGFELRKTQTSMSLGTTREKTDRVKSTAYLSPQELEDVFYQYDVKSEIYSFGIVLWEIATGDIPFQGCNSEKIRKLVAVKRQQEPLGEDCPSELREIIDECRAHDPSVRPSVDEILKKLSTFSK [MLKL]”, the “solubility in G1/S (log2)” value in data set [1] turned out to be 0.126. The melting temperature worked out at 49.6 °C in data set [2] (cell cycle stage: G1/S) and 50 °C in data set [2] (cell cycle stage: mitosis). Moreover, the “solubility change mitosis (log2)” value in data set [3] was -0.0647. Moreover, the values for the thermal stability score in data set [4] (setting [5]) and in data set [4] (cell cycle stage: mitosis) were -0.232 and 0.87, respectively.
In the case of “MSTAQSLKSVDYEVFGRVQGVCFRMYTEDEARKIGVVGWVKNTSKGTVTGQVQGPEDKVNSMKSWLSKVGSPSSRIDRTNFSNEKTISKLEYSNFSIRY [ACYP2]”, the “solubility in G1/S (log2)” value in data set [1] came to 0.215. Besides, the values for the melting temperature in data set [2] (cell cycle stage: G1/S) and in data set [2] (cell cycle stage: mitosis) were 53.7 °C and 53.4 °C, respectively. In addition, in data set [3], the “solubility change mitosis (log2)” value was -0.0326. Moreover, the thermal stability score in data set [4] (setting [5]) is -0.285; in data set [4] (cell cycle stage: mitosis), -1.11.
As to “MAAATGDPGLSKLQFAPFSSALDVGFWHELTQKKLNEYRLDEAPKDIKGYYYNGDSAGLPARLTLEFSAFDMSAPTPARCCPAIGTLYNTNTLESFKTADKKLLLEQAANEIWESIKSGTALENPVLLNKFLLLTFADLKKYHFYYWFCYPALCLPESLPLIQGPVGLDQRFSLKQIEALECAYDNLCQTEGVTALPYFLIKYDENMVLVSLLKHYSDFFQGQRTKITIGVYDPCNLAQYPGWPLRNFLVLAAHRWSSSFQSVEVVCFRDRTMQGARDVAHSIIFEVKLPEMAFSPDCPKAVGWEKNQKGGMGPRMVNLSECMDPKRLAESSVDLNLKLMCWRLVPTLDLDKVVSVKCLLLGAGTLGCNVARTLMGWGVRHITFVDNAKISYSNPVRQPLYEFEDCLGGGKPKALAAADRLQKIFPGVNARGFNMSIPMPGHPVNFSSVTLEQARRDVEQLEQLIESHDVVFLLMDTRESRWLPAVIAASKRKLVINAALGFDTFVVMRHGLKKPKQQGAGDLCPNHPVASADLLGSSLFANIPGYKLGCYFCNDVVAPGDSTRDRTLDQQCTVSRPGLAVIAGALAVELMVSVLQHPEGGYAIASSSDDRMNEPPTSLGLVPHQIRGFLSRFDNVLPVSLAFDKCTACSSKVLDQYEREGFNFLAKVFNSSHSFLEDLTGLTLLHQETQAAEIWDMSDDETI [ATG7]”, the “solubility in G1/S (log2)” value in data set [1] is -0.177. Besides, the melting temperature in data set [2] (cell cycle stage: G1/S) worked out at 51.3 °C; in data set [2] (cell cycle stage: mitosis), 51.5 °C. For the same sequence, the “solubility change mitosis (log2)” value in data set [3] is -0.0691. Further, the thermal stability score in data set [4] (setting [5]) was -0.14; in data set [4] (cell cycle stage: mitosis) it was 0.0236.
Regarding “MTFQASHRSAWGKSRKKNWQYEGPTQKLFLKRNNVSAPDGPSDPSISVSSEQSGAQQPPALQVERIVDKRKNKKGKTEYLVRWKGYDSEDDTWEPEQHLVNCEEYIHDFNRRHTEKQKESTLTRTNRTSPNNARKQISRSTNSNFSKTSPKALVIGKDHESKNSQLFAASQKFRKNTAPSLSSRKNMDLAKSGIKILVPKSPVKSRTAVDGFQSESPEKLDPVEQGQEDTVAPEVAAEKPVGALLGPGAERARMGSRPRIHPLVPQVPGPVTAAMATGLAVNGKGTSPFMDALTANGTTNIQTSVTGVTASKRKFIDDRRDQPFDKRLRFSVRQTESAYRYRDIVVRKQDGFTHILLSTKSSENNSLNPEVMREVQSALSTAAADDSKLVLLSAVGSVFCCGLDFIYFIRRLTDDRKRESTKMAEAIRNFVNTFIQFKKPIIVAVNGPAIGLGASILPLCDVVWANEKAWFQTPYTTFGQSPDGCSTVMFPKIMGGASANEMLLSGRKLTAQEACGKGLVSQVFWPGTFTQEVMVRIKELASCNPVVLEESKALVRCNMKMELEQANERECEVLKKIWGSAQGMDSMLKYLQRKIDEF [CDYL]”, the “solubility in G1/S (log2)” value in data set [1] was -0.609. Besides, the melting temperature amounted to 51.4 °C in data set [2] (cell cycle stage: G1/S) and 51 °C in data set [2] (cell cycle stage: mitosis). Further, the “solubility change mitosis (log2)” value in data set [3] was 0.533. For the same sequence, the thermal stability score is 2.51 in data set [4] (setting [5]) and 0.875 in data set [4] (cell cycle stage: mitosis).
Turning to “MLCSLLLCECLLLVAGYAHDDDWIDPTDMLNYDAASGTMRKSQAKYGISGEKDVSPDLSCADEISECYHKLDSLTYKIDECEKKKREDYESQSNPVFRRYLNKILIEAGKLGLPDENKGDMHYDAEIILKRETLLEIQKFLNGEDWKPGALDDALSDILINFKFHDFETWKWRFEDSFGVDPYNVLMVLLCLLCIVVLVATELWTYVRWYTQLRRVLIISFLFSLGWNWMYLYKLAFAQHQAEVAKMEPLNNVCAKKMDWTGSIWEWFRSSWTYKDDPCQKYYELLLVNPIWLVPPTKALAVTFTTFVTEPLKHIGKGTGEFIKALMKEIPALLHLPVLIIMALAILSFCYGAGKSVHVLRHIGGPESEPPQALRPRDRRRQEEIDYRPDGGAGDADFHYRGQMGPTEQGPYAKTYEGRREILRERDVDLRFQTGNKSPEVLRAFDVPDAEAREHPTVVPSHKSPVLDTKPKETGGILGEGTPKESSTESSQSAKPVSGQDTSGNTEGSPAAEKAQLKSEAAGSPDQGSTYSPARGVAGPRGQDPVSSPCG [CLCC1]”, the “solubility in G1/S (log2)” value in data set [1] is -0.212. Also, the melting temperature in data set [2] (cell cycle stage: G1/S) is 56 °C; in data set [2] (cell cycle stage: mitosis), 58.6 °C. Besides, the “solubility change mitosis (log2)” value in data set [3] is -0.123. In addition, the thermal stability score in data set [4] (setting [5]) is -0.638; in data set [4] (cell cycle stage: mitosis) it was 1.19.
